T1: PUF4 RNA-binding domain (Saccharomyces cerevisiae, UniProt P25339 537-888)
T1 sequence: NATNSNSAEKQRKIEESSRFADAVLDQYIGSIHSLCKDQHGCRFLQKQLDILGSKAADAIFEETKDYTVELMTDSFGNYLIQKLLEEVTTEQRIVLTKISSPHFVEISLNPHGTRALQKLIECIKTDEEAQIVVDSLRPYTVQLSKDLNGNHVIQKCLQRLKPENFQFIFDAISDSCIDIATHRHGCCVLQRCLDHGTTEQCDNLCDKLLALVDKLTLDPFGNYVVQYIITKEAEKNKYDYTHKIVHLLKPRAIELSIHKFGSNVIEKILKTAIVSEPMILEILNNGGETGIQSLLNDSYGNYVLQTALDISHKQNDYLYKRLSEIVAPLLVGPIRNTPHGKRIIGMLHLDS


Each binder was assayed against T1, PUF4 RNA-binding domain (assay: Mg; RNA-MaP; 20 mM Na-HEPES pH 7.4, 30 mM KOAc, 0.75 mM MgCl2, 0.1% Tween-20, 5% glycerol, 0.1 mg/mL BSA, 2 mM DTT; 25 C; 0.0125-409.6 nM protein). Conditions: tags: N-His6-TEV cleaved; C-SNAP kept, Cy3B-labelled; label: tethered on chip by stalled RNA polymerase.

**Q.** With UCUCUUGUACACUAUUAUUUCUCUU (ssRNA) [Id_ii_S1_P4E.4_K4.3_C4.2_[C-2G]_H4.3_A4.1_F4.1_T4.2_[G10T]] as the binder, how does the Kd read?
**A.** 0.832 nM

**Q.** For UCUCUUCAUAUAUAUUAAUUCUCUU (ssRNA) [Id_ii_S1_P4E.3_K4.2_C4.2_[T-1A]_H4.2_A4.1_F4.1_T4.2_[G10A]], which Kd is on record?
**A.** 36.3 nM

**Q.** Which Kd does the source give for UCUCUUCCUAUAUAUUAAAUCUCUU (ssRNA) [Id_ii_S1_P4E.3_K4.2_C4.2_[T-1C]_H4.2_A4.1_F4.1_T4.2_[G10A]_[T11A]] here?
**A.** 30.4 nM

**Q.** For UCUCUUCCUAUAUAUUAUGUCUCUU (ssRNA) [Id_ii_S1_P4E.3_K4.2_C4.2_[T-1C]_H4.2_A4.1_F4.1_T4.2_[G10T]_[T11G]], which Kd is on record?
**A.** 21.1 nM

**Q.** Which Kd does the source give for UCUCUUGCACACUAUUACAUCUCUU (ssRNA) [Id_ii_S1_P4E.4_K4.3_C4.2_[C-2G]_[T-1C]_H4.3_A4.1_F4.1_T4.2_[G10C]_[T11A]] here?
**A.** 99.1 nM

**Q.** With UCUCUUGCACACUAUUAAAUCUCUU (ssRNA) [Id_ii_S1_P4E.4_K4.3_C4.2_[C-2G]_[T-1C]_H4.3_A4.1_F4.1_T4.2_[G10A]_[T11A]] as the binder, how does the Kd read?
**A.** 131 nM

**Q.** Which Kd does the source give for UCUCUUCAUAUAUAUUACUUCUCUU (ssRNA) [Id_ii_S1_P4E.3_K4.2_C4.2_[T-1A]_H4.2_A4.1_F4.1_T4.2_[G10C]] here?
**A.** 21 nM

**Q.** UCUCUUCUUAUAUAUUAGCUCUCUU (ssRNA) [Id_ii_S1_P4E.3_K4.2_C4.2_H4.2_A4.1_F4.1_T4.2_[T11C]] was tested. Which Kd did it give?
**A.** 7.8 nM

**Q.** UCUCUUGUACACUAUUAUAUCUCUU (ssRNA) [Id_ii_S1_P4E.4_K4.3_C4.2_[C-2G]_H4.3_A4.1_F4.1_T4.2_[G10T]_[T11A]] was tested. Which Kd did it give?
**A.** 1.07 nM

**Q.** UCUCUUCAUAUAUAUUAGCUCUCUU (ssRNA) [Id_ii_S1_P4E.3_K4.2_C4.2_[T-1A]_H4.2_A4.1_F4.1_T4.2_[T11C]] was tested. Which Kd did it give?
**A.** 8.31 nM

**Q.** With UCUCUUCUUAUAUAUUACUUCUCUU (ssRNA) [Id_ii_S1_P4E.3_K4.2_C4.2_H4.2_A4.1_F4.1_T4.2_[G10C]] as the binder, how does the Kd read?
**A.** 18.3 nM

**Q.** For UCUCUUUGACACUAUUAUAUCUCUU (ssRNA) [Id_ii_S1_P4E.4_K4.3_C4.2_[C-2T]_[T-1G]_H4.3_A4.1_F4.1_T4.2_[G10T]_[T11A]], which Kd is on record?
**A.** 2180 nM

**Q.** UCUCUUGCACACUAUUAAUUCUCUU (ssRNA) [Id_ii_S1_P4E.4_K4.3_C4.2_[C-2G]_[T-1C]_H4.3_A4.1_F4.1_T4.2_[G10A]] was tested. Which Kd did it give?
**A.** 93.8 nM

**Q.** For UCUCUUCAUAUAUAUUAACUCUCUU (ssRNA) [Id_ii_S1_P4E.3_K4.2_C4.2_[T-1A]_H4.2_A4.1_F4.1_T4.2_[G10A]_[T11C]], which Kd is on record?
**A.** 39.7 nM

**Q.** Which Kd does the source give for UCUCUUGCACACUAUUACGUCUCUU (ssRNA) [Id_ii_S1_P4E.4_K4.3_C4.2_[C-2G]_[T-1C]_H4.3_A4.1_F4.1_T4.2_[G10C]_[T11G]] here?
**A.** 408 nM

**Q.** How did the Kd turn out when UCUCUUCAUAUAUAUUAGUUCUCUU (ssRNA) [Id_ii_S1_P4E.3_K4.2_C4.2_[T-1A]_H4.2_A4.1_F4.1_T4.2] was run?
**A.** 8.18 nM

**Q.** How did the Kd turn out when UCUCUUCCUAUAUAUUAACUCUCUU (ssRNA) [Id_ii_S1_P4E.3_K4.2_C4.2_[T-1C]_H4.2_A4.1_F4.1_T4.2_[G10A]_[T11C]] was run?
**A.** 29.3 nM

**Q.** Which Kd does the source give for UCUCUUUGUGUACUAUCUCUU (ssRNA) [Ib_S1_P4E.1_K4.1_C4.1_H4.1_[A4G]_A4.1_[T7C]_F4.1_T4.1] here?
**A.** 6.14 nM

**Q.** With UCUCUUUGACACUAUUAUUUCUCUU (ssRNA) [Id_ii_S1_P4E.4_K4.3_C4.2_[C-2T]_[T-1G]_H4.3_A4.1_F4.1_T4.2_[G10T]] as the binder, how does the Kd read?
**A.** > 2300 nM

**Q.** Which Kd does the source give for UCUCUUGUACACUAUUAAUUCUCUU (ssRNA) [Id_ii_S1_P4E.4_K4.3_C4.2_[C-2G]_H4.3_A4.1_F4.1_T4.2_[G10A]] here?
**A.** 1.04 nM

**Q.** With UCUCUUCUUAUAUAUUAAAUCUCUU (ssRNA) [Id_ii_S1_P4E.3_K4.2_C4.2_H4.2_A4.1_F4.1_T4.2_[G10A]_[T11A]] as the binder, how does the Kd read?
**A.** 43.5 nM

**Q.** How did the Kd turn out when UCUCUUGCACACUAUUAACUCUCUU (ssRNA) [Id_ii_S1_P4E.4_K4.3_C4.2_[C-2G]_[T-1C]_H4.3_A4.1_F4.1_T4.2_[G10A]_[T11C]] was run?
**A.** 69.5 nM

**Q.** Which Kd does the source give for UCUCUUCUUAUAUAUUAUAUCUCUU (ssRNA) [Id_ii_S1_P4E.3_K4.2_C4.2_H4.2_A4.1_F4.1_T4.2_[G10T]_[T11A]] here?
**A.** 27.7 nM

**Q.** UCUCUUCAUAUAUAUUAGAUCUCUU (ssRNA) [Id_ii_S1_P4E.3_K4.2_C4.2_[T-1A]_H4.2_A4.1_F4.1_T4.2_[T11A]] was tested. Which Kd did it give?
**A.** 19.9 nM

**Q.** How did the Kd turn out when UCUCUUUGUGUAGUAUCUCUU (ssRNA) [Ib_S1_P4E.1_K4.1_C4.1_H4.1_[A4G]_A4.1_[T7G]_F4.1_T4.1] was run?
**A.** 18.3 nM

**Q.** How did the Kd turn out when UCUCUUCUUAUAUAUUACAUCUCUU (ssRNA) [Id_ii_S1_P4E.3_K4.2_C4.2_H4.2_A4.1_F4.1_T4.2_[G10C]_[T11A]] was run?
**A.** 13.5 nM

**Q.** Which Kd does the source give for UCUCUUUGUCUAAUAUCUCUU (ssRNA) [Ib_S1_P4E.1_K4.1_C4.1_H4.1_[A4C]_A4.1_[T7A]_F4.1_T4.1] here?
**A.** 83.9 nM

**Q.** UCUCUUCUUAUAUAUUAGUUCUCUU (ssRNA) [If_S1_P4E.3_K4.2_C4.2_H4.2_A4.1_F4.1_T4.2] was tested. Which Kd did it give?
**A.** 7.55 nM

**Q.** With UCUCUUCAUAUAUAUUACGUCUCUU (ssRNA) [Id_ii_S1_P4E.3_K4.2_C4.2_[T-1A]_H4.2_A4.1_F4.1_T4.2_[G10C]_[T11G]] as the binder, how does the Kd read?
**A.** 34.8 nM

**Q.** How did the Kd turn out when UCUCUUUGACACUAUUACAUCUCUU (ssRNA) [Id_ii_S1_P4E.4_K4.3_C4.2_[C-2T]_[T-1G]_H4.3_A4.1_F4.1_T4.2_[G10C]_[T11A]] was run?
**A.** > 2300 nM

**Q.** Which Kd does the source give for UCUCUUGUACACUAUUAUCUCUCUU (ssRNA) [Id_ii_S1_P4E.4_K4.3_C4.2_[C-2G]_H4.3_A4.1_F4.1_T4.2_[G10T]_[T11C]] here?
**A.** 0.681 nM

**Q.** For UCUCUUCUUAUAUAUUAUUUCUCUU (ssRNA) [Id_ii_S1_P4E.3_K4.2_C4.2_H4.2_A4.1_F4.1_T4.2_[G10T]], which Kd is on record?
**A.** 15.7 nM

Source: paper PMC9352680, “A comprehensive thermodynamic model for RNA binding by the Saccharomyces cerevisiae Pumilio protein PUF4”
